To fix the notation:
B1: AsGGT2 (Allium sativum) (protein)
chain: MEPAHDDLESSLLRYRPLHNDHTTVRRYPIIIIVATFVVFGLLFSIQFNLDNSERVYELKTKSGGEVVQSEVGVVAADDGYCSETGASILRKGGHAVDALVATAICEGIRHPMSSGIGGGAFIVVRSAKDGKAFAFDARETAPIASSRDMYQNNHSDKCLGPLSIGIPGEVAGLHAIWKMYGKLPWKSLFQPSIDLLRNGFKIVPYLDMSIREHADKILSDPGLREVFAPNGRLLRLNDTLYNYRLVNSLETIAREGPQALYSGSIGEKFIQDVRDLGGIITMDDMENYKVEVTEALSGNALGYTIIGMPPPSTGTVGISMVLNILGSYKTLDAVKGLIGIHRLIEAIKHTLGMRMNLGDPNFVNITEYVNDMLSPTYAEKVKERIFDNTTFDLSYYSNKWSQLSDHGTSHVSIVDSERNAVSFTSTINEYFGAGVMSPATGIIANNEMCDFATPTDETVDDIPPAPTNFIEPNKRPLSSMSPLIILKDDNLAGVIGASGGMNIIPAIAQVLINYFILGMDPLKAVQYPRFYHRFTPNVVLYENYTAVNGENFMFPEAAIKFLEERHHQLQMKAGVAAVCQFVVQNLTESGSSNANMKNGGHLRGMLTAVSDPRKDGSPACV
notes: full-length coding region (622 aa), no tag, pYES2 in Saccharomyces cerevisiae BJ2168, crude yeast protein extract
B2: AsGGT3 (Allium sativum) (protein)
chain: MLINSYPAYHCFPHTEEFHQNFMPAYITKWLAVTLLLLVFYKPILAGDEIRHRREVITSKNGAVASDDGRCSVIGTDVLKEGGNAIDAAVAASFCLGVVSAASSGIGGGAFMLIRMANGEAHAIDMRETAPLHASQNMYNGNAILKGSGILSVAVPGEIAGLHKAWKQHGKLPWKRLVMPAAKIAKAGFEISKYLYMQMNRTKSEILKDKGMQDIYASNGTLLNPGDICRNKELACTLREIAVHGPKVFYNGSVGIKLVKDIQKLGGILTLNDLKNYRVKVNKPISANVMGYEILGMPPPSSGGAGMILILNILAQYGIPSGVSGSLGLHRFIESLKHMMAIRMNLGDPEFVNVSQVLSEMLSPKFAEDLKKRIYDNMTFDPSYYGPKWNLVNDHGTSHLSIVDSERNAVSMTSTVNSYFGAGIVSPSTGIVLNNEMDDFSIPSNSSNNNMPPPAPANFIAPLKRPLSSMSPTVVLKDGKLVASLGASGGGMIIAAATHIFLKLFAEKLDPLASALSPRSYHQLIPNVVQYEDWMTVIGDHFLVAEKERAALEKKGHVLKPLAGGTICQFVIQGADDAKELGLGIANGDLMAISDPRKGGIPDGY
notes: full-length coding region (605 aa), no tag, pYES2 in Saccharomyces cerevisiae BJ2168, crude yeast protein extract
B3: AsGGT1 (Allium sativum) (protein)
chain: MNQMAPASSDQKLGTSLIVRENSTDRRFALHWILILAALTTLFALGLHLSSVQYRGSEELGEFRKGLKSTGGSDAVESEKGVVAADDGYCSEIGASVLRKGGHAVDAVVATAICEGVRHPMSSGIGGGAFMVVRSAKDGKALAFDARETAPLAASKDMYQNNPLAKSLGPLSMGIPGEIAGLHAAWLLYGKLPWKSLFEPSITLLKNGVKIEPYLALSINDNKDKIMSDPGLAEVFAPNGKLLQLNDTFYNFKLADSLEAIAEEGPQAFYNGSIGQKFIQDIRNLGGIVTMNDMRKYTVEITEPLYSDVLGYTLVGMPLPSSGTLGVSMVLNILGSYETLNAMKGFHGLHRLIEAVKHTLAIRMNLGDSKFVNCTKYVDDMLSPTYAEQVKERIFDNTTFDPSYYLNRWSQIRDHGTSHMSIVDSERNAVAFTSTVNMYFGGGVMSPSTGIVANNEMDDFSIPTDATEDGLPPAPSNFIEPNKRPLSSMSPLIILKDNQLAGVLGASGGMNIIPAVSQVFINHFVLGVDPLKAVQHPRFYHTLIPNLVQYENWTALDGELFEFSEAAKEFLAKRNHQLQMKSGAGAVCQFVVQNLTSSNSNKETDGIIRGMLTAVSDPRKDGSPACV
notes: full-length coding region (627 aa), no tag, pYES2 in Saccharomyces cerevisiae BJ2168, crude yeast protein extract

Substrate in the series: C=CCSC[C@H](NC(=O)CC[C@H](N)C(=O)O)C(=O)O
The series can be described thus: HPLC of S-allyl-L-cysteine formed, crude yeast extract. Particulars: 10 mM glycylglycine as acceptor, 50 mM Tris-HCl pH 8.0 (standard assay), 37°C, 6 h. Type of series: biochemical, Allium sativum.
For B1, the Km came out at 1100 µM. Turning to B2, the Km was 9400 µM. On to B3, for which the Km was determined as 86 µM.

Values taken from PMC4288057, “Garlic γ-glutamyl transpeptidases that catalyze deglutamylation of biosynthetic intermediate of alliin” (Frontiers in Plant Science, 2015).
